# Experimental data: the supplement of paper PMC6755084
# B1: minF1; a variant is named by its letters at N, in order (parent)
# chain: GAGACCGCAACTGAAAAGTTGTTNNNNAANNNNNGGNTNAATTTCTGCACGTAGAAGCAAAAGGC
# Variants of: B1
# Assay: fraction ligated after 30 min (ligated reads / total reads); higher = more ligase activity
# Conditions: with F1*subA RNA substrate (template-directed ligation), 42 °C
# How it was run: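 Minimized ligase ribozyme variants came from oligo-pool templates that were PCR-amplified, T7-transcribed and gel-purified. Their ligated and unligated RNAs were separated on gels before barcoded reverse transcription and MiSeq sequencing, with core bases kept only at quality ≥30. The fraction ligated for each variant is its ligated reads as a proportion of all its reads.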
row,Variant,fraction ligated
1,TCAGTGATGTG,0.00229
2,ATAGAGGTGTG,0.00246
3,ATCAAAATGTG A28G,0.00354
4,TCAGATGGATG,0.00236
5,AAGAGGATGTG,0.00256
6,ATCAGGATGTG A29T,0.0416
7,ATCAAAGAGTG A28G,0.00276
8,CAGATGGATTG T23A,0.00704
9,TCAATGGTGTG,0.00313
10,CAGATGGATTG,0.00607
11,ATCAAATGGGT A28G G35A T38G A40T,0.000933
12,ATCAAATGAGT A28G G35T,0.00393
13,ACAGATGGAGT G35T T38G A40T A41G,0.000565
14,ATCAAATGGTG A28G,0.00482
15,ATGAGGATGTG A29T,0.0247
16,TAGATGGAGTG,0.0023
17,ATCGAGGTGTG,0.00503
18,TAGATGGAGTG T23A,0
19,ATAGATGGAGT G35T,0.00557
20,ATCAAATGGGT A28G G35T T38G A40T,0.00125
21,ATCGTGGATGT,0.00561
22,TCAGAGGATGT T23A A40G,0.00415
23,ATAGATGGAGT A40G,0.00598
24,ATCAATGGGTG,0.0045
25,AAGATGGTGTG,0.00306

row,Variant,fraction ligated
1,ATCAATGGAGT G35T,0.0137
2,ATCAAGATGTG,0.00503
3,ACAGATGGTTG,0.00164
4,ATCAATGGAGT A28G G35T,0.0192
5,ATCGATGGTGT A40G,0.0134
6,ATCGATGGTTG,0.00328
7,ATCATGGATTG,0.00725
8,ATCAATGGAGT A40G,0.00544
9,TAAAGGATGTG T23A A29T,0.00526
10,TCAGATGATTG,0.00341
11,TCAGATGGAGT A40G,0.00532
12,TCAATGGTGTG T23A,0.00318
13,TCAAGGATGTG,0.00272
14,TCAGTGATGTG T23A,0.00342
15,ATCAATGAGTG A28G,0.00195
16,TCAAGGATGTG A29T,0.00599
17,ACAGATATGTG,0.000749
18,TCAATGGATGT T23A,0.00522
19,ATAGATATGTG,0.00482
20,TCAGATGGTGT T23A,0.00338
21,ATCAATGATGT A40G,0.0188
22,AAAAGGATGTG A29T,0.00415
23,ATCAATGGTTG,0.00416
24,ATCGATGGGTG,0
25,TCAAGGATGTG T23A,0.00271

row,Variant,fraction ligated
1,ATGATGGATGT,0.00269
2,ATGAGGATGTG,0.00387
3,ATCAAATGATG A28G,0.00241
4,CAGATGATGTG T23A,0.00284
5,TAGATGGTGTG,0.0039
6,ATCAAATGGGT A28G G35A,0.00387
7,ATCAAATGGGT A28G G35T,0.00148
8,TAGAGGATGTG T23A A29T,0.00989
9,ATCAATGGAGT,0.00569
10,ATCGAGGATGT A40G,0.0171
11,ATAGATGGTGT,0.00303
12,ATCAAGGAGTG A28G,0.00604
13,AAGATGGATGT,0.0029
14,ATAAGGATGTG,0.00241
15,ATCAGGATGTG,0.00723
16,ATAGATGGATG,0.00358
17,ATCATGGTGTG,0.00812
18,ATCAAAGGATG A28G,0.0078
19,ACAGATGGATG,0.000541
20,ATCGTGGAGTG,0.00282
21,ATCAATGGAGT G35T T38G A40T A41G,0.00079
22,ATCAAAGGAGT A28G G35T,0.00323
23,CAGATGGATGT T23A,0.00559
24,ATAGATGGAGT G35T A40G,0.0113
25,TCAGTGGATGT T23A,0.00804

row,Variant,fraction ligated
1,TCAGATGATGT T23A,0.00365
2,TAGATGATGTG,0.00308
3,TCAGATGGAGT,0.00402
4,ACAGGGATGTG,0.00108
5,ATAGAGGAGTG,0.00165
6,ATCAAATGTGT A28G,0.00203
7,ATAGTGATGTG,0.00472
8,ATCAAATGGGT A28G G35T A40G,0.00694
9,CAGATGGATGT,0.00272
10,ACGAGGATGTG A29T,0.0139
11,TCAGTGGATTG T23A,0.0201
12,TAGATGATGTG T23A,0.00371
13,TCAATGATGTG T23A,0.00128
14,TAGAGGATGTG T23A,0.00277
15,TCAGATGATTG T23A,0.00216
16,TCAGATGGAGT T23A,0.00368
17,TCAGATGAGTG,0.00318
18,ACAGGGATGTG A29T,0.00506
19,ATAGATGGAGT G35T T38G A40T A41G,0.00159
20,ATCGATGAGTG,0.00373
21,ACAGTGATGTG,0.00182
22,TCAGATGGTGT,0.00178
23,ATCGAGGATGT,0.004
24,CAGAGGATGTG T23A,0.00547
25,ATAGATGAGTG,0.00181

row,Variant,fraction ligated
1,ATCAAATATGT A28G,0.00373
2,TCAATGGAGTG,0.00287
3,ATCAATGGTTG A28G,0.00263
4,ATAGAGGATGT,0.00209
5,ATCAAATGGGT A28G,0.00311
6,ACAGTGGATGT,0.00954
7,ATCAAGGTGTG,0.00569
8,ATCGATGATGT A40G,0.0304
9,TCAGGGATGTG,0.00365
10,ATCAAGGATGT A28G,0.00393
11,ATCATGGATTG A28G,0.00743
12,TGAAGGATGTG A29T,0.00393
13,TCAGATGGAGT T23A G35T A40G,0.0397
14,TCAATGGATGT,0.00761
15,ACAAGGATGTG,0.00477
16,TCGATGGAGTG,0.00518
17,TCAGATGGTTG,0.00217
18,ATCAAATATTG A28G,0.00289
19,TCGAGGATGTG A29T,0.0105
20,TCAGATGGGTG T23A,0.00356
21,AGAAGGATGTG A29T,0.00349
22,TCGATGATGTG,0.00384
23,TCAGTGGATGT T23A A40G,0.0264
24,TCAGATGGAGT G35T T38G A40T,0.00171
25,ACAATGGATGT A40G,0.0105

row,Variant,fraction ligated
1,TAGAGGATGTG A29T,0.0101
2,ATGATGGTGTG,0.00304
3,ACAGTGGATGT A40G,0.017
4,ATCAAGGATGT A28G A40G,0.0268
5,ATCAAAGTGTG A28G,0.00347
6,ATAGGGATGTG A29T,0.0314
7,ATCAAATGTGT A28G A40G,0.00666
8,ACAATGGAGTG,0.00318
9,ACAGATGGAGT A40G,0.00662
10,ATCGATGGATG,0.00346
11,ATAGTGGATGT,0.0055
12,ATCATGGATGT A40G,0.0479
13,TCAATGGAGTG T23A,0.00168
14,TAGAGGATGTG,0.00132
15,ATCATGATGTG,0.00541
16,ATCGTGGATTG,0.0062
17,ATAATGGATGT,0.00257
18,ATCAAAGATTG A28G,0.00113
19,ATCAATGGATG,0.00435
20,ATAGTGGATGT A40G,0.0158
21,TAGATGGTGTG T23A,0.00156
22,TCAGATGATGT A40G,0.011
